Results taken from paper PMC11534217, “Direct activation of HSF1 by macromolecular crowding and misfolded proteins”.

What was measured:
[1] = target: T1, Heat shock factor protein 1 (HSF1), purified recombinant (human), Q00613; assay: SEC + native gel or EMSA; trimer fraction of purified HSF1 from the same SEC, then Blue native PAGE and western blot; conditions: remark: other sources report otherwise
T1 chain: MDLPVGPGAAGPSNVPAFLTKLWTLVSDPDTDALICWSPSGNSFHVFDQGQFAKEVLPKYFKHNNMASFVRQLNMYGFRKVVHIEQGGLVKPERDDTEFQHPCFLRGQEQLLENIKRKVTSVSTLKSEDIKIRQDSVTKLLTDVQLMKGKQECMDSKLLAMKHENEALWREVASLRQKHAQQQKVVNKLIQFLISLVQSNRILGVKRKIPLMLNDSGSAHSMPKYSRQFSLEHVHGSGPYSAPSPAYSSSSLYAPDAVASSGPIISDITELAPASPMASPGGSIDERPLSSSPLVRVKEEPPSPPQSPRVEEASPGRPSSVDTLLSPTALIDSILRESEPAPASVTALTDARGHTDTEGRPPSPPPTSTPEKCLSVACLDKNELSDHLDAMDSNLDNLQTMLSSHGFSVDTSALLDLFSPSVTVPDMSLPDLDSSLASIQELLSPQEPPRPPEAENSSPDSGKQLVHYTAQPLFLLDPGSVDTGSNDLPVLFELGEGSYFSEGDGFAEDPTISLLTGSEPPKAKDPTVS

[2] = target: T1, Heat shock factor protein 1 (HSF1), …; assay: native gel or EMSA; Blue native PAGE and western blot of purified HSF1 monomer (5 μM) after mild heat (38°C, 0-600 s; or 37°C, 5 min) with or without BSA as crowder (1-50 mg/ml); conditions: remark: other sources report otherwise
[3] = target: T2, HSF1, endogenous in H1299 cells (human (endogenous in H1299)), Q00613; assay: cross-linking; 2 mM DSBU added to the lysate of H1299 cells for 30 minutes, SDS-PAGE, blot with anti-HSF1 c-5; cells treated with AUY-922 (0-200 nM, 2 h) after mTOR inhibitors BEZ-235 or rapamycin (100 nM, 8 h); conditions: remark: other sources report otherwise
T2 chain: T1 chain

GFP-HSF1 (human), Q00613 = target: T3, GFP-HSF1 (human), Q00613; assay: native gel or EMSA; high resolution clear native electrophoresis (HR CNE) of lysates of H1299 cells with fluorescent HSF1 fusion, fluorescence scan; cells treated with sorbitol, 42°C heat shock, bortezomib or AUY-922; conditions: remark: other sources report otherwise
T3 chain: T1 chain

[4] = target: T4, mCherry-HSF1 (human), Q00613; assay: as above; conditions: remark: other sources report otherwise
T4 chain: T1 chain

[5] = target: HSF1 monomer (SEC-purified) (human (Homo sapiens), UniProt Q00613 1-529); assay: fluorescence polarization; after heat shock (+HS); binding enhanced; FP: 30 nM DNA, 150 mM NaCl, 50 mM HEPES pH 7.2, 1 mM DTT, 0.05% Tween-20, 25 C; EMSA: 200 nM HSF1, 100 nM DNA, 25 mM HEPES pH 7.4, 150 mM NaCl, 10% glycerol, 3; conditions: protein: recombinant; tags: N-terminal His6-TEV, cleaved by TEV before assay; chain copies: 3; label: 5' FAM on printed strand; described as double-stranded

B1: Heat shock factor protein 1 (HSF1), purified recombinant, Q00613-1 1-529 (natural protein)
chain: T1 chain
stoichiometry N [1]: 3 | stoichiometry N [2]: 3

B2: HSF1, endogenous in H1299 cells, Q00613 1-529 (natural protein)
chain: T1 chain
stoichiometry N [3]: 3

B3: GFP-HSF1, Q00613 1-529 (natural protein)
chain: T1 chain
stoichiometry N (GFP-HSF1 (human), Q00613): 3

B4: mCherry-HSF1, Q00613-1 1-529 (natural protein)
chain: T1 chain
stoichiometry N [4]: 3

B5: FAM-HSE (dsDNA)
DNA 1: CCCCTTCCCGAATATTCCCCC
DNA 2: GGGGGAATATTCGGGAAGGGG
binding result [5]: binds
